Reference: patent US20190016828A1

What was measured:
[1] = molecular target: human neonatal Fc-receptor (FcRn) (human) (UniProt P55899); assay: FcRn affinity chromatography
[2] = molecular target: human neonatal Fc-receptor (FcRn) (human) (UniProt P55899); assay: FcRn affinity chromatography, bispecific KiH antibody

RT (Min) on FcRn affinity column [1]	retention time on FcRn affinity column [2]	Substance	further results
		IgG1 Fc-region molecule with L234A/L235A/P329G and symmetric Y436A	FcRn-affinity column retention time [1]: 41.3 min
0 min		bispecific antibody (knobs-into-holes), first chain with I253A/H310A/H435A and second chain with H310A	
0 min		bispecific antibody (knobs-into-holes), first chain with I253A/H310A/H435A and second chain with H435A	
0 min		bispecific antibody (knobs-into-holes), first chain with I253A/H310A/H435A and second chain with I253A/H310A/H435A	
	48.4 min	bispecific antibody (knobs-into-holes), one chain with H310A	
	46.7 min	bispecific antibody (knobs-into-holes), one chain with H310A/H433A/Y436A	
	48.8 min	bispecific antibody (knobs-into-holes), one chain with H435A	
	48.8 min	bispecific antibody (knobs-into-holes), one chain with I253A	
	46.3 min	bispecific antibody (knobs-into-holes), one chain with L251D/L314D/L432D	
	56.2 min	bispecific antibody (knobs-into-holes), one chain with M252Y/S254T/T256E	
